The source of these data is patent US20140356358A1 (Amgen, published 2014).

Substitutions are numbered along the chain they refer to. Names may count otherwise.

In assay [1] the target is T1, human neonatal Fc receptor (hFcRn) (human, UniProt P55899 24-290; P61769 21-119).
T1 construct: Biotinylated in the ELISA, Octet and yeast assays; also called human FcRn; huFcRn
The assay can be described thus: phage ELISA pH 7.4.

Assay [2] has as its target T1, human neonatal Fc receptor (hFcRn). The assay can be described thus: phage ELISA pH 6.
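Also: higher score means stronger binding and above about 3 to 5 exceeds background.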

T1 sequence (P55899 24-290 limits assumed, chain 1 of 2): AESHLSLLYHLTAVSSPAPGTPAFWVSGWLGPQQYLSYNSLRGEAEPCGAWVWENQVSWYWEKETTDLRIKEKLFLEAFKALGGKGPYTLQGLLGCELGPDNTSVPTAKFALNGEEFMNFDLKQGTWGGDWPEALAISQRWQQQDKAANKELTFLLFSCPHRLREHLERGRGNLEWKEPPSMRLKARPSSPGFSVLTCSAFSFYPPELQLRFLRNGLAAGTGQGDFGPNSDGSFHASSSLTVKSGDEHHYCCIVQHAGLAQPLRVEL
T1 sequence (P61769 21-119 limits assumed, chain 2 of 2): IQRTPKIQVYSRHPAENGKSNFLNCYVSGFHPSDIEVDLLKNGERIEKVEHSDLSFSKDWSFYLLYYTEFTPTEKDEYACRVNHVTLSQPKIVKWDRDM

B1: L6A isolate with insertion SEQ ID NO: 400 (other)
chain: EPKSCDKTHTCPPCPAPELLGGPSVFLFPPKPKDTLMISRTPEVTCVVVDVSHEDPEVKFNWYVDGVEVHNAKTKPREEQYNSTYRVVSVLTVLHQDWLNGKEYKCKVSNKALPAPIEKTISKAKGQPREPQVYTLPPSRDELGGCRAGYGDASCGGTKNQVSLTCLVKGFYPSDIAVEWESNGQPENNYKTTPPVLDSDGSFFLYSKLTVDKSRWQQGNVFSCSVMHEALHNHYTQKSLSLSPGK
Consider B1, for which the ELISA score is 0.7 in assay [1] and 79.5 in assay [2].

B2: L6A isolate with insertion SEQ ID NO: 466 (other)
chain: B1 chain with R147D, A148R, G149F, Y150Q, G151N, D152V, A153N, S154V
B2: the results for the ELISA score in assay [1] and in assay [2] were 0.2 and 44, respectively.

B3: L6B isolate with insertion SEQ ID NO: 473 (other)
chain: B1 chain with R147S, A148F, G149S, Y150R, G151H, D152M, A153G, S154A
In the case of B3, the ELISA score stood at 0.3 in assay [1] and 41.8 in assay [2].

B4: L6B isolate with insertion SEQ ID NO: 457 (other)
chain: B1 chain with R147N, A148Q, G149S, Y150S, G151S, D152R, A153E, S154A
For B4, the ELISA score in assay [1] came to 0.4; in assay [2], 49.2.

B5: L6A isolate with insertion SEQ ID NO: 465 (other)
chain: B1 chain with R147F, A148T, G149N, G151A, D152S, A153E, S154K
Consider B5, for which the figures for the ELISA score in assay [1] and in assay [2] were 0.3 and 45.2, respectively.

B6: L6A isolate with insertion SEQ ID NO: 474 (other)
chain: B1 chain with R147A, A148K, G149D, Y150Q, G151H, D152T, A153G
As to B6, the ELISA score in assay [1] turned out to be 0.2; in assay [2], 41.2.

B7: L6A isolate with insertion SEQ ID NO: 458 (other)
chain: B1 chain with R147N, A148P, G149V, Y150S, G151T, D152G, S154Y
B7: the ELISA score came out at 0.2 in assay [1] and 48.5 in assay [2].

B8: L6B isolate with insertion SEQ ID NO: 469 (other)
chain: B1 chain with R147E, A148M, G149M, Y150K, G151N, D152K, A153S, S154G
With B8, the results for the ELISA score in assay [1] and in assay [2] were 0.3 and 43.2, respectively.

B9: L6B isolate with insertion SEQ ID NO: 460 (other)
chain: B1 chain with R147G, A148E, G149Y, Y150N, G151Y, D152V, A153G, S154G
For B9, the ELISA score came to 0.4 in assay [1] and 47.2 in assay [2].

B10: L6B isolate with insertion SEQ ID NO: 410 (other)
chain: B1 chain with R147L, A148K, Y150M, G151H, D152G, A153S, S154A
Take B10: the ELISA score in assay [1] was determined as 0.8; in assay [2], 68.9.

B11: L6B isolate with insertion SEQ ID NO: 427 (other)
chain: B1 chain with R147V, A148Q, G149H, Y150K, G151M, D152G, A153V, S154V
For the molecule B11, the figures for the ELISA score in assay [1] and in assay [2] were 0.8 and 58.9, respectively.

B12: L6A isolate with insertion SEQ ID NO: 467 (other)
chain: B1 chain with R147E, A148R, G149H, Y150F, G151P, D152A, A153L, S154F
Take B12: the values for the ELISA score in assay [1] and in assay [2] were 0.6 and 43.8, respectively.

B13: L6B isolate with insertion SEQ ID NO: 440 (other)
chain: B1 chain with R147N, G149T, Y150L, G151S, D152G, A153Y, S154L
In the case of B13, the ELISA score in assay [1] stood at 0.6; in assay [2] it was 54.9.

B14: L6B isolate with insertion SEQ ID NO: 468 (other)
chain: B1 chain with R147T, A148L, Y150S, G151A, D152P, A153T, S154L
For the molecule B14, the ELISA score worked out at 0.2 in assay [1] and 43.6 in assay [2].

B15: L6B isolate with insertion SEQ ID NO: 472 (other)
chain: B1 chain with R147P, A148N, G149D, Y150T, G151V, D152R, A153D, S154A
As for B15, the ELISA score in assay [1] was 0.4; in assay [2], 42.2.

B16: L6B isolate with insertion SEQ ID NO: 471 (other)
chain: B1 chain with R147L, A148R, G149N, Y150F, G151M, D152K, A153Q
On to B16, for which the ELISA score in assay [1] was found to be 0.2; in assay [2], 42.3.

B17: L6B isolate with insertion SEQ ID NO: 454 (other)
chain: B1 chain with R147Y, A148G, G149K, Y150A, D152M, A153R, S154D
For the molecule B17, the ELISA score in assay [1] came out at 0.4; in assay [2], 50.1.

B18: L5 isolate with insertion SEQ ID NO: 478 (other)
chain: EPKSCDKTHTCPPCPAPELLGGPSVFLFPPKPKDTLMISRTPEVTCVVVDVSHEDPEVKFNWYVDGVEVHNAKTKPREEQYNSTYRVVSVLTVLHQDWLNGKEYKCKVSNKALPAPIEKTISKAKGQPREPQVYTLPPSRDELTKNQVSLTCLVKGFYPSDIAVEWESNGGCDLPNEMCGGGQPENNYKTTPPVLDSDGSFFLYSKLTVDKSRWQQGNVFSCSVMHEALHNHYTQKSLSLSPGK
As for B18, the ELISA score in assay [1] was found to be 1; in assay [2] it was 36.1.

B19: L5 isolate with insertion SEQ ID NO: 481 (other)
chain: B18 chain with D173E, L174Q, P175Q, N176F, E177V, M178T
B19: the results for the ELISA score in assay [1] and in assay [2] were 0.8 and 31.1, respectively.

B20: L5 isolate with insertion SEQ ID NO: 482 (other)
chain: B18 chain with D173M, L174G, P175W, N176W, E177H, M178L
On to B20, for which the ELISA score in assay [1] came to 1.2; in assay [2] it was 29.5.

B21: L5 isolate with insertion SEQ ID NO: 493 (other)
chain: B18 chain with D173L, E177M, M178F
For B21, the ELISA score in assay [1] is 1; in assay [2], 22.

B22: L5 isolate with insertion SEQ ID NO: 485 (other)
chain: B18 chain with D173M, L174P, N176Q, E177W
In the case of B22, the ELISA score came to 2.1 in assay [1] and 27.5 in assay [2].

B23: L5 isolate with insertion SEQ ID NO: 491 (other)
chain: B18 chain with C172S, D173Q, L174R, P175A, N176P, E177A, M178S
On to B23, for which the ELISA score in assay [1] worked out at 1.2; in assay [2] it was 24.9.

B24: L5 isolate with insertion SEQ ID NO: 488 (other)
chain: B18 chain with D173G, L174P, P175Y, N176K, E177T, M178E
Turning to B24, the ELISA score in assay [1] was found to be 0.9; in assay [2] it was 26.1.

B25: variant Fc-fragment Fc-5-66 (other)
chain: B18 chain with D173E, L174R, P175F, N176H, E177H, M178A
notes: soluble elsewhere
For B25, the ELISA score in assay [1] was 0.5; in assay [2], 51.2.

B26: L5 isolate with insertion SEQ ID NO: 489 (other)
chain: B18 chain with D173Q, L174P, P175Q, N176A, E177S, M178W
On to B26, for which the ELISA score was found to be 0.7 in assay [1] and 25.2 in assay [2].

B27: L5 isolate with insertion SEQ ID NO: 496 (other)
chain: B18 chain with D173G, L174G, N176Y, E177V, M178F
With B27, the values for the ELISA score in assay [1] and in assay [2] were 1.4 and 21.3, respectively.

B28: L5 isolate with insertion SEQ ID NO: 480 (other)
chain: B18 chain with D173A, L174G, N176Y, E177W, M178A
B28: the ELISA score in assay [1] amounted to 0.7; in assay [2], 33.7.

B29: L5 isolate with insertion SEQ ID NO: 483 (other)
chain: B18 chain with D173P, L174Q, P175H, N176G
Consider B29, for which the ELISA score in assay [1] worked out at 0.5; in assay [2], 28.4.

B30: L5 isolate with insertion SEQ ID NO: 486 (other)
chain: B18 chain with L174T, P175I, N176G, E177W, M178F
For the molecule B30, the ELISA score in assay [1] is 1.4; in assay [2], 26.9.

B31: L5 isolate with insertion SEQ ID NO: 479 (other)
chain: B18 chain with D173M, L174F, P175S, N176H, E177P, M178H
Regarding B31, the ELISA score in assay [1] turned out to be 0.7; in assay [2], 35.8.

B32: L5 isolate with insertion SEQ ID NO: 495 (other)
chain: B18 chain with D173L, L174M, P175S, N176Q, E177D, M178L
Take B32: the ELISA score worked out at 1 in assay [1] and 21.5 in assay [2].

B33: L5 isolate with insertion SEQ ID NO: 492 (other)
chain: B18 chain with D173M, L174M, P175R, N176E, E177Q, M178G
Take B33: the ELISA score in assay [1] was 1.5; in assay [2], 23.9.

B34: L5 isolate with insertion SEQ ID NO: 494 (other)
chain: B18 chain with D173C, L174P, P175V, N176Y, E177Q, M178H
With B34, the results for the ELISA score in assay [1] and in assay [2] were 0.3 and 21.7, respectively.

B35: L5 isolate with insertion SEQ ID NO: 484 (other)
chain: B18 chain with D173Y, L174A, P175S, N176P, E177H, M178E
In the case of B35, the results for the ELISA score in assay [1] and in assay [2] were 1 and 27.7, respectively.

B36: L5 isolate with insertion SEQ ID NO: 487 (other)
chain: B18 chain with D173G, L174I, P175F, N176E, E177S, M178W
Turning to B36, the ELISA score in assay [1] worked out at 0.7; in assay [2], 26.3.

B37: L5 isolate with insertion SEQ ID NO: 490 (other)
chain: EPKSCDKTHTCPPCPAPELLGGPSVFLFPPKPKDTLMISRTPEVTCVVVDVSHEDPEVKFNWYVDGVEVHNAKTKPREEQYNSTYRVVSVLTVLHQDWLNGKEYKCKVSNKALPAPIEKTISKAKGQPREPQVYTLPPSRDELTKNQVSLTCLVKGFYPSDIAVEWESNGGCDRQVTGFCGGGQPENNYKTTPPVLDSDGSFFLYSKLTVDKSRWQQGNVFSCSVMHEALHNHYTQKSLSLSPGK
Regarding B37, the results for the ELISA score in assay [1] and in assay [2] were 0.4 and 25, respectively.
